pKd: −log10 of the molar value.
Assays:
[1] = molecular target: human insulin receptor (human) (UniProt P06213); experiment: FACS, serum-starved IM-9 cells; insulin state of the control not stated
[2] = molecular target: human insulin receptor (human) (UniProt P06213); experiment: FACS, serum-starved IM-9 cells, no insulin
[3] = molecular target: human insulin receptor complexed with human insulin (human) (UniProt P06213); experiment: KinExA, affinity with insulin against affinity without insulin
[4] = molecular target: human insulin receptor (human) (UniProt P06213); experiment: KinExA antibody depletion by hINSR8-CHOK1 cells, without insulin
[5] = molecular target: human insulin receptor complexed with human insulin (human) (UniProt P06213); experiment: FACS, serum-starved IM-9 cells pre-exposed to human insulin
[6] = molecular target: human insulin receptor complexed with human insulin (human) (UniProt P06213); experiment: KinExA antibody depletion by hINSR8-CHOK1 cells, with 175 nM insulin

Substance	MFI [1]	MFI [2]	Fold Improvement with Insulin [3] [fold]	pKd [4]	MFI [5]	pKd [6]
Neg Control	3.83					
83-7 (antibody)		18.4	3	9.32	34.9	9.80
